Laboratory results as given in PMC8860590, “Identification, functional characterization, assembly and structure of ToxIN type III toxin–antitoxin complex from E. coli”.

How the values were obtained:
[1] = molecular target: T1, ToxN (ToxNEc) (Escherichia coli strain 680, UniProt PDB:7D8O_1 1-187); test: ITC; one-site fit; ITC: 50 mM KH2PO4 pH 7, 100 mM KCl, 15°C; 2-5 uM RNA in cell, 35-50 uM ToxN in syringe; details: protein: recombinant, tags: N-terminal His6 (pCold II)
[2] = molecular target: T1, ToxN (ToxNEc); test: ITC; no appreciable heat change; ITC: 50 mM KH2PO4 pH 7, 100 mM KCl, 15°C; 2-5 uM RNA in cell, 35-50 uM ToxN in syringe; details: protein: recombinant; tags: N-terminal His6 (pCold II); pseudoknot

Question: GGAUUCAGGUGAUUUGCUACCUUUAAGUGCA (structured_RNA) [Δ3'-ToxI] was tested. Which Kd ([1]; pseudoknot with 5' single-stranded overhang) did it give?
Answer: 243 ± 55 nM

Question: Does GGAGGUGAUUUGCUACCUUUAAGUGCA (structured_RNA) [27mer (core pseudoknot)] bind [2]?
Answer: no binding

Question: For GGAGGUGAUUUGCUACCUUUAAGUGCAGCUAGAA (structured_RNA) [Δ5'-ToxI], which Kd ([1]; pseudoknot with 3' single-stranded overhang) is on record?
Answer: 47.3 ± 7.4 nM
